From US20260184775A1 (Chugai, published 2026) come the findings set out here.

Like-named read-outs stand apart in the source and are kept apart here. A value given as a limit tells only on which side of the number the result lay.

The target in experiment [1] is T1, recombinant human latent TGF-beta 1 (Flag-tagged human latent TGF-beta 1) (human, UniProt P01137 34-390).
T1 construct: Latent form: LAP plus mature TGF-beta 1; also called human recombinant latent TGF-beta 1; SLC
Kind of experiment: SPR, Biacore T200, 37 C, pH 7.4; antibody captured by anti-human Fc, latent TGF-beta 1 injected at 3.125 to 50 nM. As to the method:
(§1) The affinities of anti-latent TGF-beta 1 antibodies binding to human or mouse latent TGF-beta 1 at pH 7.4 were determined at 37 degrees C. using Biacore T200 instrument (GE Healthcare). Anti-human Fc (GE Healthcare) was immobilized onto all flow cells of a CM4 sensor chip using an amine coupling kit (GE Healthcare). All antibodies and analytes were prepared in ACES pH 7.4 containing 20 mM ACES, 150 mM NaCl, 1.2 mM CaCl₂), 0.05% Tween 20, 0.005% NaN3. Each antibody was captured onto the sensor surface by anti-human Fc. Antibody capture levels were aimed at 300 resonance unit (RU). For TBA865 and TBA873, recombinant human or mouse latent TGF-beta 1 was injected at 12.5 to 200 nM prepared by two-fold serial dilution, followed by dissociation. For TBS139 and TBS182, recombinant human or mouse latent TGF-beta 1 was injected at 3.125 to 50 nM prepared by two-fold serial dilution, followed by dissociation. The sensor surface was regenerated each cycle with 3M MgCl2.

For experiment [2], the target named is T2, recombinant mouse latent TGF-beta 1 (Flag-tagged mouse latent TGF-beta 1) (mouse, UniProt P04202 34-390).
T2 construct: also called mouse recombinant latent TGF-beta 1
Kind of experiment: SPR, Biacore T200, 37 C, pH 7.4; antibody captured by anti-human Fc, latent TGF-beta 1 at 3.125 to 50 nM as analyte; 1:1 model. The protocol:
as §1
(In general: SPR reads the build-up and loss of mass on a sensor chip optically.)

For experiment [3], the target named is T3, mouse cell surface latent TGF-beta 1 (mouse, UniProt P04202 30-390).
T3 construct: Endogenous latent TGF-beta 1 (forming LLC) on Ba/F3 cells, and the latent TGF-beta 1 of mouse PBMC in the co-culture assay; also called cell surface mouse latent TGF-beta 1; latent TGF-beta 1 on Ba/F3 cells
Kind of experiment: FACS on Ba/F3 cells, PE-labelled secondary antibody, MFI. As to the method: (§2) Anti-latent TGF-beta 1 antibodies were incubated with each cell line for 30 minutes at 4 degrees C. and washed with FACS buffer (2% FBS, 2 mM EDTA in PBS). Anti-KLH antibody (IC17) was used for a negative control antibody. Goat F(ab′)2 anti-Human IgG, Mouse ads-PE (Southern Biotech, Cat. 2043-09) or Goat F(ab′)2 anti-Mouse IgG(H+L), Human Ads-PE (Southern Biotech, Cat. 1032-09) was then added and incubated for 30 minutes at 4 degrees C. and washed with FACS buffer. Data acquisition was performed on an FACS Verse (Becton Dickinson), followed by analysis using FlowJo software (Tree Star) and GraphPad Prism software (GraphPad).

In experiment [4] the target is T4, human cell surface latent TGF-beta 1 (human, UniProt P01137 30-390).
T4 construct: also called cell surface human latent TGF-beta 1
The experiment in a line: FACS on FreeStyle 293-F cells, PE-labelled secondary antibody, MFI. As to the method: as §2

Experiment [5] has as its target T1, recombinant human latent TGF-beta 1 …. The experiment in a line: SPR, Biacore T200, 37 C, pH 7.4; antibody captured by anti-human Fc, latent TGF-beta 1 at 12.5 to 200 nM as analyte; 1:1 model. The protocol: as §1
In experiment [6] the target is T2, recombinant mouse latent TGF-beta 1 …. The description is as above. As to the method:
as §1

Experiment [7] deals with T1, recombinant human latent TGF-beta 1 …. The experiment is described as above. As to the method:
(§3) The affinities of anti-latent TGF-beta 1 antibodies binding to human latent TGF-beta 1 at pH 7.4 were determined at 37 degrees C. using Biacore T200 instrument (GE Healthcare). Anti-human Fc (GE Healthcare) was immobilized onto all flow cells of a CM4 sensor chip using an amine coupling kit (GE Healthcare). All antibodies and analytes were prepared in ACES pH 7.4 containing 20 mM ACES, 150 mM NaCl, 1.2 mM CaCl₂, 0.05% Tween 20, and 0.005% NaN₃. Each antibody was captured onto the sensor surface by anti-human Fc. Antibody capture levels were aimed at 300 resonance unit (RU). Recombinant human latent TGF-beta 1 was injected at a concentration of 12.5 to 200 nM prepared by two-fold serial dilution, followed by dissociation. Sensor surface was regenerated each cycle with 3M MgCl₂.
The source holds these as a separate data set.

Experiment [8] has the same target. Kind of experiment: SPR, Biacore T200, 37 C, pH 7.4; antibody captured by anti-human Fc; 1:1 model; footnote: slow off rate <1E-05, KD cannot be uniquely determined. As to the method: as §3

T1 sequence (P01137 other isoform, or with tags, fused parts or gaps limits assumed): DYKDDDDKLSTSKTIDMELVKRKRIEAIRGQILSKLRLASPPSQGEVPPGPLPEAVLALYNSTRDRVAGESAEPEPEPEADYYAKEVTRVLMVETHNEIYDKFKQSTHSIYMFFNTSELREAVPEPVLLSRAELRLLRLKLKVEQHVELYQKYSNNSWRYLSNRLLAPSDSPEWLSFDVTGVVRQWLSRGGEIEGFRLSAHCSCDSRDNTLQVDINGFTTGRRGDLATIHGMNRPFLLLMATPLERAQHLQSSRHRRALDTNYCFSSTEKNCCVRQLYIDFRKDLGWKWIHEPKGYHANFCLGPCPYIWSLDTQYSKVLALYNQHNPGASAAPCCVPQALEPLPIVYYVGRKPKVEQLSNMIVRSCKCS
T2 sequence (P04202 other isoform, or with tags, fused parts or gaps limits assumed): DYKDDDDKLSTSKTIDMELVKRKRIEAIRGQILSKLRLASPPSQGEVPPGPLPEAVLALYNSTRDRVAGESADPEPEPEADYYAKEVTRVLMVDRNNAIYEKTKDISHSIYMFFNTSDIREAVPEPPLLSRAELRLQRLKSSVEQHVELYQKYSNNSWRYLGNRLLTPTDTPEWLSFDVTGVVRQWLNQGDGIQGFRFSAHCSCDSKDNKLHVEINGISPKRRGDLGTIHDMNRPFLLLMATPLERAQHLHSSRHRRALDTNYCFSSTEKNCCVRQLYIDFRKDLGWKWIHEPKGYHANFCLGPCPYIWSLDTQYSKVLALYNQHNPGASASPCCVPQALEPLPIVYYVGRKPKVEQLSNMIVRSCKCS
T4 sequence (P01137 30-390): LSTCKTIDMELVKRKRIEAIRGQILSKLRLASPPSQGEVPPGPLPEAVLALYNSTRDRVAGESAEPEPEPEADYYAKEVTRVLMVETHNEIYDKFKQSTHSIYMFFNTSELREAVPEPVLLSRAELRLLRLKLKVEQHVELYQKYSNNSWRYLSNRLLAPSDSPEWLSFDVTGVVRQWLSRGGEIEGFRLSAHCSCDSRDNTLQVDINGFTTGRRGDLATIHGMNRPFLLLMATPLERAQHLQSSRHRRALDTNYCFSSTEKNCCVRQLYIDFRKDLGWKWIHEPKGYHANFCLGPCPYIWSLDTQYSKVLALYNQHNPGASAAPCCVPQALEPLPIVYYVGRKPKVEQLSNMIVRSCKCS
T3 sequence (P04202 30-390): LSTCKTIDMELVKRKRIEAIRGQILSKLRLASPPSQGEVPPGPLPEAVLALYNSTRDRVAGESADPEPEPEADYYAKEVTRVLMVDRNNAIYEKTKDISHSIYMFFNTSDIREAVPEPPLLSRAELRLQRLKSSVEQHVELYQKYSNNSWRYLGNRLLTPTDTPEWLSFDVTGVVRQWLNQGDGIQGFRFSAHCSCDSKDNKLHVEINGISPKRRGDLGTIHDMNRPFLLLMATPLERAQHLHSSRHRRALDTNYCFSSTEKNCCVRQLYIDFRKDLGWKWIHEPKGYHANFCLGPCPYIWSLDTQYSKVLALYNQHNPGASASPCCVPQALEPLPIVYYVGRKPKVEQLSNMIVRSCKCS

B1: TBS182 (antibody, V domains shown)
VH: QSLEESGGDLVKPGASLTLTCTASGFSFSRSYYMCWVRQAPGKGLEWIACIYGGSSGSTWYASWAKGRFTISKTSSTTVTLQMTSLTAADTATYFCARDIGNYYRWWGPGTLVTVSS
VL: AVVLTQTTSPVSAPVGGTVTIKCQASKNIYSLLAWYQQKPGQPPKLLIYDASTLASGVPSRFKGSGSGTQFTLTISDLECADAATYYCQSYYDSSSSADLSTFGGGTEVVVKR
For orientation: Kd means the concentration at which binding is half-saturated. One may read the koff as the rate constant with which the complex falls apart. The term kon denotes a measure of how fast the partners come together. For B1, the binding result in experiment [1] is “no binding (tested: 50 nM)”. Besides, in experiment [2], the Kd amounted to 0.0482 nM, the koff was 5.32e-05 s⁻¹ and the kon stood at 1.1e+06 M⁻¹ s⁻¹.

B2: TBA865 (antibody, human IgG1, kappa, V domains shown)
VH: QSLEESGGRLVTPGGSLTLTCTVSGIDLSSYAMGWVRQAPGKGLEYIGIISSSGLTDYASWVNGRFTISKTSTTVDLKITSPTTEDTATYFCARIYDLWGPGTLVTVSS
VL: DIVMTQTPASVEAAVGGTLTIKCQASQSISDQLSWYQQKPGQPPKLLIYRASTLESGVPSRFKGSGSGTQFTLTISDLECADAATYYCQSYYYSYSSTYGNTFGGGTKVEIKR
On to B2, for which the binding result in experiment [3] is “no binding”. For the same molecule, in experiment [4], the binding result is on record as “no binding”. Further, in experiment [5], the Kd came to 0.16 nM, the koff stood at 6.55e-05 s⁻¹ and the on-rate (kon) worked out at 410000 M⁻¹ s⁻¹. Moreover, in experiment [6], the Kd stood at 0.158 nM, the dissociation rate constant (koff) was 5.37e-05 s⁻¹ and the on-rate (kon) was 341000 M⁻¹ s⁻¹.

B3: TBA873 (antibody, human IgG1, kappa, V domains shown)
VH: QSLEESGGRLVTPGGSLTLTCTVSGIDLSSYAMGWVRQAPGKGLEYIGIISNSGLTDYASWVNGRFTISKTSTTVDLKITSLTTEDTATYFCARIYDLWGPGTLVTVSS
VL: DIVMTQTPASVEAAVGGTVTIKCQASQSISNQLSWYQQKPGQPPKLLIYRASTLASGVSSRFKGSGSGTQFTLTISDLECAAAATYYCQSYYYSVSSTYGNTFGGGTKVEIKR
On to B3, for which, in experiment [3], the binding result is given as “no binding”. Also, in experiment [4], the binding result is listed as “no binding”. For the same molecule, in experiment [5], the Kd was 0.292 nM, the koff was 6.72e-05 s⁻¹ and the kon was determined as 230000 M⁻¹ s⁻¹. Further, in experiment [6], the dissociation constant (Kd) is 0.276 nM, the off-rate constant (koff) was found to be 5.15e-05 s⁻¹ and the kon is 187000 M⁻¹ s⁻¹.

B4: TBA1314 (antibody, human IgG1, kappa, V domains shown)
VH: QSVEESGGRLVTPGTPLTLTCTVSGFSLSNYAMTWVRQAPGKGLEWIGVIYAGGNTYYANWVNGRFTISKTSTTVDLKITSPTTEDTATYFCARDVGSSSSGVYFNIWGPGTLVTVSS
VL: AYDMTQTPASVEVAVGGTVTIKCQASQSIGSRLAWYQQKPGQPPKLLIYDASTLASGVSSRFKGSGSGTEFTLTISGVECADAATYYCQQDYSYRHVDNIFGGGTKVEIKR
notes: also called TBA1314aa-F1332m
B4: the association rate constant (kon) in experiment [7] was 402000 M⁻¹ s⁻¹. For the same molecule, in experiment [8], the Kd is at most 0.00738 nM and the koff was below 1e-05 s⁻¹.

B5: TBS139 (antibody, mouse IgG1, kappa, V domains shown)
VH: QSLEESGGDLVKPGASLTLTCTASGFSFSSYWMSWVRQAPGKGLEYIGMISIIGTTYYASWAKGRFTISKTSSTTVTLQVTSLTAADTATYFCARGYVSNSNYWGLWGPGTLVTVSS
VL: AYDMTQTPASVEVAVGGTVTIKCQASQNIGSNLAWYQQKPGQPPKLLIYYASDLASGVPSRFKGSGSGTRYTLTISGVQCDDAATYYCQQYWSSSNVDNTFGGGTEVVVKR
For the molecule B5, the binding result in experiment [1] was “no binding (tested: 50 nM)”. In experiment [2], the Kd was determined as 0.0225 nM, the off-rate constant (koff) is 3.96e-05 s⁻¹ and the kon came out at 1.76e+06 M⁻¹ s⁻¹.
